Numbering of substitutions follows the chain as printed.

Broadly, the Kd is a measure of binding affinity in units of concentration. Read a high Kd as lower affinity.

Assay [1] addresses T1, TM4SF5-Fc antigen protein (UniProt O14894).
T1 sequence (looked up): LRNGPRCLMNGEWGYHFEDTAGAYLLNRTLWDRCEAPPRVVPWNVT
The assay is described as follows: Biacore, TM4SF5-Fc immobilized directly on the chip.

In assay [2] the target is T2, TM4SF5 (antigen of SPR/BIACORE/ELISA, construct not stated) (UniProt O14894).
T2 sequence (looked up): T1 sequence (looked up)
The assay is described as follows: BIACORE.

The target in assay [3] is T3, hEC2-Fc-myc antigen (human) (UniProt O14894).
T3 sequence (looked up): T1 sequence (looked up)
The experiment in a line: Octet (BLI), IgG against hEC2-Fc-myc. A general note: Biolayer interferometry detects binding as a change in optical thickness at a sensor tip.

Assay [4] deals with T4, TM4SF5 (antigen of SPR/BIACORE/ELISA, construct not stated) (UniProt O14894 112-157, limits assumed).
T4 construct: also called TM4SF5 target
T4 chain (looked up): T1 sequence (looked up)
The assay is described as follows: SPR. On the technique in general: In SPR one partner is held on a chip, and binding of the other changes the refractive index at the surface.

The target in assay [5] is T2, TM4SF5 (antigen of SPR/BIACORE/ELISA, construct not stated). The experiment in a line: SPR.
Assay [6] has as its target T3, hEC2-Fc-myc antigen (human). The assay is described as follows: ELISA, IgG against hEC2-Fc-myc. (In general: An ELISA detects its analyte on a solid surface through an enzyme-linked reagent.)

B1: huAb27-9_E01 IgG (antibody, V domains shown)
VH: EVQLVQSGADVKEPGASVKVSCKASGYTFTDYEMHWVRQAPGQGLEWMGAIDPETGGTAYNQKFKGWVTMTADKSISTAYMELSRLRSDDTAVYYCTRPYLGYWGQGTLVTVSS
VL: EIVLTQSPGMLSLSPGERATLSCRSSQSLVHRNGNTYLHWYQQKPGQAPRLLIYKVSNRFSGIPDRFSGSGSGTDFTLTISRLEPEDFAVYYCFQGSHIPLTFGQGTKVEIKR
Regarding B1, the fold improvement of antigen-binding affinity against parent huAb27-9 in assay [1] came to 3 fold.

B2: S43 (G2) (antibody, V domains shown, not shown: a dimerising Fc or GST)
VH: B1 VH with E1Q, D10E, E13K, T28R, E54A, T55F, W67R, T97A
VL: B1 VL with M10T, R32S, R113G
B2 yielded a fold reduction in affinity against S43 in assay [2] of 1.5 fold.

B3: 1-5 IgG (antibody, V domains shown)
VH: B1 VH with E1Q, D10E, E13K, A59F, Y60V, N61K, Q62R, W67R, T97A
VL: EIVLTQSPGTLSLSPGERATLSCRSSQSLVHSNGNTYLHWYQQKPGQAPRLLIYKVSNRFSGIPDRFSGSGSGTDFTLTISRLEPEDFAVYYCFQGSHIPLTFGQGTKVEIK
notes: IgG; also called T1-5
Regarding B3, the fold improvement of KD relative to huAb27-9 in assay [3] was 7.7 fold. For the same molecule, in assay [4], the Kd worked out at 3.94 nM, the “fold improvement of KD against chimeric Ab27” value is ~4 fold and the “fold improvement of KD against humanized Ab27-hz9” value was ~2.4 fold.

B4: huAb27-9 scFv-Fc (Fc fusion, part only; not given: linker, domain order, hinge-Fc, not shown: another chain or arm of the molecule; a dimerising Fc or GST; small tags and cut ends)
VH: B1 VH with E1Q, D10E, E13K, W67R, T97A
VL: B3 VL
For B4, in assay [5], the Kd was found to be 7.23 nM and the fold difference in affinity against Ab27 scFv-Fc amounted to 1.4 fold.

B5: 2-1 IgG (antibody, V domains shown)
VH: B1 VH with E1Q, D10E, E13K, A59F, Y60V, N61V, Q62S, W67R, T97A
VL: B3 VL
Regarding B5, in assay [3], the fold improvement of KD relative to huAb27-9 is 12.6 fold. Further, the fold improvement of EC50 relative to huAb27-9 in assay [6] came out at 41.4 fold.

B6: EO1 H(G)L(GG) (antibody, V domains shown, not shown: a dimerising Fc or GST)
VH: B1 VH
VL: B1 VL with R113G
Molecule B6 returned a fold improvement in affinity against EO1 in assay [2] of 2 fold.

B7: S43 IgG (antibody, V domains shown)
VH: B1 VH with E1Q, D10E, E13K, T28R, E54A, T55F, W67R, T97A
VL: B3 VL
notes: IgG1; also called huAb27-9_M74; M74
As to B7, in assay [4], the affinity, expressed as Kd, was 4.19 nM; the “fold improvement of KD against chimeric Ab27” value was ~4 fold; the “fold improvement of KD against humanized Ab27-hz9” value was ~2.4 fold.

B8: huAb27-9 IgG (antibody, V domains shown)
VH: B1 VH with E1Q, D10E, E13K, W67R, T97A
VL: B1 VL with M10T, R32S
notes: IgG1 format; also called Hz#9 IgG; Hz #9 IgG
On to B8, for which the Kd in assay [4] was 9.46 nM.

The values above are taken from patent EP4745157A1 (Korea Research Institute of Bioscience and Biotechnology, dated 2026).
